Experimental data published in US20160068605A1 (Janssen / Centocor, published 2016).
Numbering of substitutions follows the chain as printed. Numbers in names are those of the source.

T1: Recombinant human CD123 SP1 ECD-His tag protein (human, UniProt P26951 20-305)
T1 construct: bought from R&D Systems (#301-R3/CF); biotinylated for some assays; also called rhCD123 SP1; huCD123 ECD SP1
T1 sequence: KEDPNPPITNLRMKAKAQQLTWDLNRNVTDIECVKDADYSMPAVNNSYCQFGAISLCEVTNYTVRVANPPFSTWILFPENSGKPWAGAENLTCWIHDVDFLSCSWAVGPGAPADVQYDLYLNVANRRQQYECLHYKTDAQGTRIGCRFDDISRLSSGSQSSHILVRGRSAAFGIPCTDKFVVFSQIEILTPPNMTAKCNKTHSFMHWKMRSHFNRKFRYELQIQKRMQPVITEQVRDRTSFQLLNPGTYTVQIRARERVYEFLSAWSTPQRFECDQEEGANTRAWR

T2: Recombinant human CD123 SP2 ECD protein (human, UniProt P26951 101-303)
T2 construct: also called rhCD123 SP2; CD123 ECD SP2
T2 sequence: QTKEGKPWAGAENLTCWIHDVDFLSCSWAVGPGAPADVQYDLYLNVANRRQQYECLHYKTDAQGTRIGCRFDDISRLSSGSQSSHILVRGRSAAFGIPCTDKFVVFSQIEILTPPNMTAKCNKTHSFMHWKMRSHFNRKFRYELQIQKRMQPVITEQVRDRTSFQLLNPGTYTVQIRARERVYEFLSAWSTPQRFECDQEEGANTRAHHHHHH

T3: human CD123 SP2 ECD displayed on pDisplay-transfected cells (human, UniProt P26951 101-305)
T3 construct: ECD anchored on the surface of stably transfected HEK293 cells; also called hCD123 SP2 cells; pDisplay CD123SP2
T3 sequence: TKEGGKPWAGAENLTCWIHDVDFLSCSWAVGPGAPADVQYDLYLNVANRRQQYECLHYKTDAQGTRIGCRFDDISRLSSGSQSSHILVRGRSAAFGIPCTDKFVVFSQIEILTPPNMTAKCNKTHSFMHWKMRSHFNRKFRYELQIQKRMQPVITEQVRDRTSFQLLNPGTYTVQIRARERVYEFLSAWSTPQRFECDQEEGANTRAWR

T4: human CD123 SP1 ECD displayed on pDisplay-transfected cells (human, UniProt P26951 20-305)
T4 construct: ECD anchored on the surface of stably transfected HEK293 cells by the PDGFR transmembrane domain; also called hCD123 SP1 cells; hCD123 cells
T4 sequence: T1 sequence

B1: CD3B158 (antibody, IgG1, V domains shown)
VH: EVQLVESGGGLVQPGGSLKLSCAASGFTFNTYAMNWVRQASGKGLEWVGRIRSKYNGYATYYAASVKGRFTISRDDSKNTAYLQMNSLKTEDTAVYYCTRHGNFGNSYVSWFAYWGQGTLVTVSS
VL: QTVVTQEPSLTVSPGGTVTLTCRSSTGAVTTSNYANWVQQKPGQAPRGLIGGTNKRAPGTPARFSGSLLGGKAALTLSGVQPEDEAEYYCALWYSNLWVFGGGTKLTVL
notes: IgG1 constant region with L234A, L235A, F405L; human lambda light chain constant region
B2: CD3B151 (antibody, IgG1, V domains shown)
VH: EVQLLESGGGLVQPGGSLRLSCAASGFTFNTYAMNWVRQAPGKGLEWVARIRSKYNNYATYYADSVKGRFTISRDNSKNTLYLQMNSLRAEDTAVYYCVKHGNFGNSYVSWFAYWGQGTLVTVSS
VL: B1 VL with T2A, V80A
notes: as for B1
B3: CD3B155 (antibody, IgG1, V domains shown)
VH: B1 VH
VL: B1 VL with T2A, V80A
notes: as for B1
B4: CD3B154 (antibody, IgG1, V domains shown)
VH: B2 VH
VL: B1 VL
notes: as for B1
B5: bispecific antibody Ab 3978 (bispecific antibody, human IgG4 S228P, kappa, lambda, F234A L235A)
heavy 1: EVQLLESGGGLVQPGGSLRLSCAASGFTFNTYAMNWVRQAPGKGLEWVARIRSKYNNYATYYADSVKGRFTISRDNSKNTLYLQMNSLRAEDTAVYYCVKHGNFGNSYVSWFAYWGQGTLVTVSSASTKGPSVFPLAPCSRSTSESTAALGCLVKDYFPEPVTVSWNSGALTSGVHTFPAVLQSSGLYSLSSVVTVPSSSLGTKTYTCNVDHKPSNTKVDKRVESKYGPPCPPCPAPEAAGGPSVFLFPPKPKDTLMISRTPEVTCVVVDVSQEDPEVQFNWYVDGVEVHNAKTKPREEQFNSTYRVVSVLTVLHQDWLNGKEYKCKVSNKGLPSSIEKTISKAKGQPREPQVYTLPPSQEEMTKNQVSLTCLVKGFYPSDIAVEWESNGQPENNYKTTPPVLDSDGSFLLYSKLTVDKSRWQEGNVFSCSVMHEALHNHYTQKSLSLSLGK
light 1: QAVVTQEPSLTVSPGGTVTLTCRSSTGAVTTSNYANWVQQKPGQAPRGLIGGTNKRAPGTPARFSGSLLGGKAALTLSGAQPEDEAEYYCALWYSNLWVFGGGTKLTVLGQPKAAPSVTLFPPSSEELQANKATLVCLISDFYPGAVTVAWKADSSPVKAGVETTTPSKQSNNKYAASSYLSLTPEQWKSHRSYSCQVTHEGSTVEKTVAPTECS
heavy 2: not shown
light 2: EIVLTQSPGTLSLSPGERATLSCRASQSVSSSYLAWYQQKPGQAPRLLIYGASSRATGIPDRFSGSGSGTDFTLTISRLEPEDFAVYYCQQDYGFPWTFGQGTKVEIKRTVAAPSVFIFPPSDEQLKSGTASVVCLLNNFYPREAKVQWKVDNALQSGNSQESVTEQDSKDSTYSLSSTLTLSKADYEKHKVYACEVTHQGLSSPVTKSFNRGEC
notes: IgG4-PAA; CD3 arm of CD3B217 (first heavy and light chain), CD123 arm of I3RB217 (I3RB18)
B6: bispecific antibody Ab 8876 (bispecific antibody, human IgG4 S228P, kappa, lambda, F234A L235A)
heavy 1: B5 heavy 1
light 1: B5 light 1
heavy 2: not shown
light 2: not shown
notes: also called 8876I
B7: bispecific antibody Ab 7955 (bispecific antibody, human IgG4 S228P, kappa, lambda, F234A L235A)
heavy 1: B5 heavy 1
light 1: B5 light 1 with A2T, A80V
heavy 2: not shown
light 2: B5 light 2
notes: IgG4-PAA; CD3 arm of CD3B218, CD123 arm of I3RB217 (I3RB18)
B8: CD3B152 (antibody, IgG1, V domains shown)
VH: B2 VH
VL: QSVLTQPPSVSAAPGQKVTISCRSSTGAVTTSNYANWVQQLPGTAPKGLIGGTNKRAPGIPDRFSGSKSGTSATLGITGLQTGDEADYYCALWYSNLWVFGGGTKLTVL
notes: as for B1
B9: CD3B156 (antibody, IgG1, V domains shown)
VH: B1 VH
VL: B8 VL
notes: as for B1

Tests used:
[1] = target: T5, cell-surface CD3 epsilon on primary cynomolgus T cells (cynomolgus monkey, UniProt Q95LI5 22-198); experiment: flow cytometry on primary cynomolgus CD4+ T cells, anti-human IgG Alexa Fluor 647; MFI
T5 construct: whole, on cells; also called cynomolgus CD3e; Cyno T-cells
Method: (§1) The resulting panel of anti-CD3 antibodies was tested for binding against cell-surface CD3ε on primary human T cells. To do this, binding of antibodies from expression supernatants was visualized using a polyclonal anti-human secondary antibody and analyzed by flow cytometry. Briefly, binding of anti-CD3 antibodies to cell-surface CD3ε was assessed by flow cytometry using primary Human T lymphocytes purified by negative selection (Biological Specialty, Colmar, USA). Expression supernatants or purified antibodies were normalized to 10 μg/ml in media or FACS buffer (BD BioSciences), respectively. 2×10⁵ cells were aliquoted into wells of a 96 well round-bottomed plate (CoStar) for labeling. Antibodies in expression supernatant were added to cells and incubated for 45 min at 4° C. Following centrifugation at 1300 rpm for 3 min and removal of supernatant, 50 μL of anti-human IgG (H+L) Alexa Fluor 647 secondary antibody (Life technologies Inc.) was incubated with the cells at a final concentration of 10 μg/mL for 30 min at 4° C. away from direct light. Following washing and resuspension in 30 μL FACs buffer (BD BioSciences). Sample collection was performed on an Intellicyt HTFC system using ForeCyt software. Viable single cells were gated prior to analysis of binding using the green or red fixable live/dead dyes (Life Technologies Inc.) and forward/side scatter area and height parameters, respectively. Graphs were generated in GraphPad Prism version 5 using mean fluorescence intensity values.
Binding analysis of the anti-CD3 hits to primary cynomolgusCD4⁺ T cells was then tested in order to assess the retention of cross-reactivity. Purified CD4⁺ T cells from the peripheral blood of cynomolgus monkeys (Zen Bio, Triangle Research Park, USA were used). Assay protocols were similar to those described above.

[2] = target: T6, cell-surface CD3 epsilon on primary human T cells (human, UniProt P07766 23-207); experiment: flow cytometry on primary human T cells, anti-human IgG Alexa Fluor 647; MFI
T6 construct: whole, on cells; part of the CD3/TCR complex on the cells
Method: as §1

[3] = target: T5, cell-surface CD3 epsilon on primary …; experiment: flow cytometry competition with labeled CD3B146 on T cells
Source text: (§2) The format involved competition binding using a fixed concentration of labeled anti-CD3 mAb of known affinity and increasing concentrations of unlabeled test Abs (Ashkenazi A et al. PNAS: 88:10535, 1991.).

[4] = target: T6, cell-surface CD3 epsilon on primary …; experiment: as above
Source text: as §2

[5] = target: T1, Recombinant human CD123 SP1 ECD-His tag …; experiment: SPR Biacore T200, captured antibody
Method: (§3) Kinetic studies were performed at 25° C. using a Biacore T200 (Biacore, Inc., now part of GE Healthcare). […] The carboxymethyl groups of dextran were activated with N-Ethyl-N′-(3-Dimethylaminopropyl)carbodiimide (EDC) and N-hydroxysuccinimide (NHS). The anti-Fc antibody was coupled at pH 4.5 in 10 mM sodium acetate. Any remaining reactive sites on the surface were blocked by reaction with ethanolamine. […] 40-70 RU of antibody were captured. […] Association data was collected for 2 min followed by 10 min of dissociation. The surface was regenerated with 30 μL of 100 mM H3PO4 100 μL/min, followed by 50 mM NaOH. The samples for kinetic analysis were prepared in PBS-based buffer (D-PBS containing 3 mM EDTA and 0.005% surfactant P20). Data reported is the difference in SPR signal between the flow cell containing the captured antibody and a reference cell without captured antibody. Additional instrumental contributions to the signal were removed by subtraction of the data from the blank injection from the reference-subtracted signal. Data were analyzed by fitting association and dissociation phases at all concentrations (global fit) with a 1:1 binding model using the BIAevaluation software (BIAcore, Inc.).

[6] = target: T2, Recombinant human CD123 SP2 ECD protein; experiment: SPR Biacore T200, captured antibody
Method: as §3

[7] = target: T3, human CD123 SP2 ECD displayed on …; experiment: MSD-CAT on pDisplay cells
Method: (§4) The MSD-CAT was developed in-house as a label-free method to determine affinity using intact cells in a high throughput format. […] Cell lines used were human pDisplay CD123SP1 and pDisplay CD123SP2. […] These samples were prepared in DMEM Glutamax medium containing 0.05% Azide, 1% BSA, 3 mM EDTA. […] After equilibration the plate was centrifuged for 5 minutes ˜1000 rpm and free anti-CD3 detected on the supernatant. […] The assay buffer was removed without washing and 50 uL/well of 0.7 ug/mL of biotinylated antigen in assay buffer were added to MSD plates and incubated overnight (˜16 hours at 4° C.).

[8] = target: T4, human CD123 SP1 ECD displayed on …; experiment: MSD-CAT on pDisplay cells
Method: as §4

T5 sequence (Q95LI5 22-198): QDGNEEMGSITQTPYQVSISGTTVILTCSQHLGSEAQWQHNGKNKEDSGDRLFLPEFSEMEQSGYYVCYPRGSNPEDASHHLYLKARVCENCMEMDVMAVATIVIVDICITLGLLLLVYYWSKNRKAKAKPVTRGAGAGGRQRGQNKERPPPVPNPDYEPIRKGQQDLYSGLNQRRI
T6 sequence (P07766 23-207): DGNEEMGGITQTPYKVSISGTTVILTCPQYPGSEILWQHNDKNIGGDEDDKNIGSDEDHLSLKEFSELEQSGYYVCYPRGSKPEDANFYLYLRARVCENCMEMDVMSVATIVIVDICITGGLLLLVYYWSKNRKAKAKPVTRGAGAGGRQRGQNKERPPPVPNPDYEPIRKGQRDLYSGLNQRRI

Row | Binder | binding result [1] | binding result [2] | Kd [3] [nM] | Kd [4] [nM] | Kd [5] [nM] | koff [5] [s⁻¹] | kon [5] [M⁻¹ s⁻¹] | Kd [6] [nM] | koff [6] [s⁻¹] | kon [6] [M⁻¹ s⁻¹] | Kd [7] [nM] | Kd [8] [nM]
1 | B1 | binds | binds | – | – | – | – | – | – | – | – | – | –
2 | B2 | binds | binds | – | – | – | – | – | – | – | – | – | –
3 | B3 | binds | binds | – | – | – | – | – | – | – | – | – | –
4 | B4 | binds | binds | – | – | – | – | – | – | – | – | – | –
5 | B5 | – | – | 215 | 241 | 1.47 | 0.00083 | 564000 | 0.356 | 0.0011 | 3.12e+06 | 0.528 | 0.153
6 | B6 | – | – | 110 | 169 | 14.4 | 0.0049 | 343000 | 1.75 | 0.005 | 2.83e+06 | 2.45 | 1.29
7 | B7 | – | – | 169 | 210 | 1.49 | 0.00084 | 562000 | 0.344 | 0.0011 | 3.33e+06 | 0.436 | 0.136
8 | B8 | no binding (tested: not printed) | no binding | – | – | – | – | – | – | – | – | – | –
9 | B9 | binds | binds | – | – | – | – | – | – | – | – | – | –
